Drawing on the Immune Epitope Database (IEDB), this text covers Kd for 10 sequences.

The target in test [1] is HLA-A*23:01. The test is described as follows: IEDB peptide-MHC binding, purified MHC/direct/fluorescence; filed as Kd, often an IC50 or EC50 that approximates it; ≥ and ≤ were set here for values at or beyond the usual limits of such assays. Particulars: source organism: Orthohantavirus hantanense.
The target of test [2] is HLA-A*24:02. The test is described as above.
Test [3] concerns the target HLA-A*24:03. Described as above. Particulars: source organism: Orthohantavirus hantanense.
The target of test [4] is HLA-A*01:01. The description is as above.
Test [5] has as its target HLA-A*02:01. Described as above.
Test [6] has as its target HLA-A*03:01. The test is described as above.
Test [7] addresses HLA-A*11:01. Described as above.
In test [8] the target is HLA-A*26:01. The description is as above.
The target in test [9] is HLA-A*30:01. The test is described as above. The settings on record: source organism: Vibrio parahaemolyticus.
In test [10] the target is HLA-A*69:01. Described as above.
Test [11] concerns the target HLA-B*07:02. The test is described as above.
Test [12] deals with HLA-B*08:01. Described as above.
The target in test [13] is HLA-B*15:01. Described as above.
Test [14] deals with HLA-B*27:05. The test is described as above.
Test [15] concerns the target HLA-B*40:01. Described as above.
Test [16] concerns the target HLA-B*44:02. The test is described as above.
Test [17] addresses HLA-B*58:01. Described as above.
For test [18], the target named is HLA-B*73:01. The description is as above.
The target in test [19] is HLA-B*48:01. The description is as above.
The target of test [20] is HLA-B*08:02. The test is described as above. Particulars: source organism: Cryptosporidium parvum Iowa II.
The target of test [21] is HLA-B*15:09. Described as above.
Test [22] has as its target HLA-B*46:01. The test is described as above.
Test [23] concerns the target HLA-A*02:01. Briefly: IEDB peptide-MHC binding, purified MHC/competitive/fluorescence; filed as Kd, often an IC50 or EC50 that approximates it; ≥ and ≤ were set here for values at or beyond the usual limits of such assays. Particulars: source organism: Escherichia coli B171.
Test [24] has as its target HLA-B*27:05. The test is described as above. Particulars: source organism: Escherichia coli B171.
For test [25], the target named is HLA-B*39:01. The description is as above. Particulars: source organism: Escherichia coli B171.
In test [26] the target is HLA-B*18:01. Briefly: IEDB peptide-MHC binding, purified MHC/direct/fluorescence; filed as Kd, often an IC50 or EC50 that approximates it; ≥ and ≤ were set here for values at or beyond the usual limits of such assays.
The target of test [27] is HLA-A*31:01. Described as above.
The target of test [28] is HLA-C*08:02. The test is described as above. The settings on record: source organism: Xenopus laevis.
For test [29], the target named is HLA-A*02:11. The test is described as above. Particulars: source organism: Influenza A virus H3N2.
In test [30] the target is HLA-A*02:16. The description is as above. The settings on record: source organism: Influenza A virus H3N2.
The mark [31] stands for this setting: source organism: Vibrio parahaemolyticus.
Where [32] appears, read: source organism: Bacillus anthracis.
Setting [33] is: source organism: Cryptosporidium parvum.
Setting [34] is: source organism: Listeria monocytogenes.
The mark [35] stands for this setting: source organism: Giardia lamblia ATCC 50803.
The mark [36] stands for this setting: source organism: Brucella abortus.
Where [37] appears, read: source organism: Influenza A virus (A/swine/Cotes d'Armor/800/00(H1N2)).
Where [38] appears, read: source organism: Influenza A virus (A/Puerto Rico/8/34/Mount Sinai(H1N1)).

Bounds are passed on as bounds.

Turning to QWLIEPCKL, the Kd in test [1] was 0.18 µM; in test [2] (source organism: Orthohantavirus hantanense) it was 0.155 µM; in [3], 0.205 µM.

For the sequence IRSCWRYRK, the Kd in test [4] (setting [31]) is at least 20 µM; in [5] (setting [31]), at least 20 µM; in [6] (setting [31]), 7.86 µM; in test [7] (setting [31]), 2.14 µM; in test [8] (setting [31]), at least 20 µM; in [9] it was 0.516 µM. The Kd in test [10] (setting [31]) was at least 20 µM; in test [11] (setting [31]), at least 20 µM; in test [12] (setting [31]), at least 20 µM; in test [13] (setting [31]) it was at least 20 µM; in test [14] (setting [31]) it was 0.0748 µM; in test [15] (setting [31]) it was at least 20 µM. Besides, the Kd in [16] (setting [31]) is at least 20 µM; in test [17] (setting [31]) it was at least 20 µM; in test [18] (source organism: Vibrio parahaemolyticus AQ3810) it was 3.88 µM.

As for RRMMMRITE, the Kd in test [14] (setting [32]) is 0.28 µM; in [19] (setting [32]), at least 20 µM; in test [18] (source organism: Bacillus cereus B4264) it was 1.15 µM.

Consider NTSTCFQEY, for which the Kd in test [4] (setting [33]) was 0.0305 µM; in [5] (setting [33]), at least 20 µM; in test [6] (setting [33]) it was at least 20 µM; in test [2] (setting [33]), at least 20 µM; in test [10] (setting [33]) it was at least 20 µM; in [11] (setting [33]) it was at least 20 µM. Further, the Kd in test [20] is at least 20 µM; in [13] (setting [33]), 0.592 µM; in test [21] (source organism: Cryptosporidium parvum Iowa II) it was at least 20 µM; in test [14] (setting [33]), at least 20 µM; in test [15] (setting [33]), at least 20 µM; in [16] (setting [33]) it was at least 20 µM. For the same sequence, the Kd in test [22] (setting [33]) and in test [17] (setting [33]) was at least 20 µM throughout.

For the sequence KRYKQMCTK, the Kd in [14] (setting [34]) was 0.177 µM; in test [19] (setting [34]), at least 20 µM; in test [18] (source organism: Listeria monocytogenes serotype 4b str. H7858) it was at least 20 µM.

As to QTNLYNLLY, the Kd in [23] was 4 µM; in [24], at least 20 µM; in test [25] it was at least 20 µM.

As for IFKNLTKPL, the Kd in test [4] (setting [35]), in test [5] (setting [35]), in test [6] (setting [35]), in test [7] (setting [35]), in [2] (setting [35]) and in test [10] (setting [35]) was at least 20 µM throughout. In addition, the Kd in [11] (setting [35]) was at least 20 µM; in test [12] (setting [35]), 0.774 µM; in test [13] (setting [35]), 0.757 µM; in test [21] (setting [35]), at least 20 µM; in test [26] (setting [35]), at least 20 µM; in test [14] (setting [35]) it was at least 20 µM. For the same sequence, the Kd in test [15] (setting [35]), in test [16] (setting [35]) and in [17] (setting [35]) was at least 20 µM in each case.

As to GRKTPLLCF, the dissociation constant (Kd) in test [4] (setting [36]), in test [5] (setting [36]), in [6] (setting [36]), in test [7] (setting [36]), in test [8] (setting [36]) and in test [27] (setting [36]) was at least 20 µM in each case. Further, the Kd in [10] (setting [36]) was at least 20 µM; in test [11] (setting [36]), at least 20 µM; in test [12] (setting [36]), at least 20 µM; in test [13] (setting [36]), at least 20 µM; in test [14] (source organism: Brucella melitensis), 0.939 µM; in [15] (setting [36]), at least 20 µM. The Kd in [16] (setting [36]), in test [17] (setting [36]) and in test [18] (source organism: Brucella suis 1330) was at least 20 µM each time.

Consider YLDDPDLKY, for which the Kd in test [4] (source organism: Homo sapiens) was 0.0668 µM; in test [5] (source organism: Homo sapiens) it was 3.36 µM; in test [7] (source organism: Homo sapiens), at least 24.4 µM; in test [10] (source organism: Homo sapiens) it was 18 µM; in [13] (source organism: Homo sapiens), 0.437 µM; in test [28], at least 20 µM.

With GMDPRMCSL, the Kd in test [4] (setting [37]) is at least 20 µM; in test [5] (setting [38]), 0.392 µM; in test [29], 0.011 µM; in test [30] it was 0.019 µM; in [6] (setting [37]) it was at least 20 µM; in [7] (setting [37]), at least 20 µM. Besides, the Kd in [2] (setting [37]) is at least 20 µM; in test [27] (setting [37]) it was at least 20 µM; in test [10] (setting [37]), at least 20 µM; in test [11] (setting [38]), 1.66 µM; in [12] (setting [38]) it was 6.22 µM; in test [13] (setting [37]), at least 20 µM. The Kd in [26] (setting [37]), in test [14] (setting [37]), in [15] (setting [37]), in test [16] (setting [37]), in [22] (setting [37]) and in test [17] (setting [37]) was at least 20 µM in each case.

Usually Kd stands for the equilibrium constant for the complex coming apart. Low values mean tighter binding, high ones weaker binding.
